Results: patent US20210340207A1 (Merck Sharp & Dohme, published 2021)
*1 amine or outer side, *2 acyl side, *3 side chain or, on linkers, in order; H or OH if unused. Side-chain parts run from the residue outwards. [ ]: non-standard residue; d: D form. pAMF = para-azidomethylphenylalanine, [N-]=[N+]=NCc1ccc(C[C@H](N[*:1])C(=O)[*:2])cc1

Columns and labels:
Assay in all cases: cell-based or functional assay
[1] = target: T1, human IL-2Rαβγc (on Kit225-STAT5 reporter cells, NK-92 cells, primary Treg cells) (human, UniProt P01589 22-272; P14784 27-551; P31785 23-369)
T1 sequence (looked up) 1: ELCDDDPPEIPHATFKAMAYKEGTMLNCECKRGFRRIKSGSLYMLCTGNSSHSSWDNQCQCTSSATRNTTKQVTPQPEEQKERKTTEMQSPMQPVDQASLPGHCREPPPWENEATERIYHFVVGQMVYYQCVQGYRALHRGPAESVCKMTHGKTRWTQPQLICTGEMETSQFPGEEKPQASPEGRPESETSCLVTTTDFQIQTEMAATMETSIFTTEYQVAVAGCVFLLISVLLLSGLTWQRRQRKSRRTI
T1 sequence (looked up) 2: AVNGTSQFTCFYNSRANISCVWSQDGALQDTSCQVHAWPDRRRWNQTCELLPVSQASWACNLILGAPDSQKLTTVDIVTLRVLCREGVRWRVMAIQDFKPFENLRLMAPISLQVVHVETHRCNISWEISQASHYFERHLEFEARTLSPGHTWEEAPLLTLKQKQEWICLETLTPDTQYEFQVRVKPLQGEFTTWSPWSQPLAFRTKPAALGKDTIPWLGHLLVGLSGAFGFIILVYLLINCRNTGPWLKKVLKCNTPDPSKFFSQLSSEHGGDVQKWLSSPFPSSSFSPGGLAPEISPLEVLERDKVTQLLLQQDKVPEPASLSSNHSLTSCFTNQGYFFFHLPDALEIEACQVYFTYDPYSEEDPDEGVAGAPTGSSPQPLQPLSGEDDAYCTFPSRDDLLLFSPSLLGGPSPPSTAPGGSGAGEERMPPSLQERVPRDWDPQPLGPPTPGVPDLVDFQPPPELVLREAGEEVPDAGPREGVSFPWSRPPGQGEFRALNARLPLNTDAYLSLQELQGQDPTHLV
T1 sequence (looked up) 3: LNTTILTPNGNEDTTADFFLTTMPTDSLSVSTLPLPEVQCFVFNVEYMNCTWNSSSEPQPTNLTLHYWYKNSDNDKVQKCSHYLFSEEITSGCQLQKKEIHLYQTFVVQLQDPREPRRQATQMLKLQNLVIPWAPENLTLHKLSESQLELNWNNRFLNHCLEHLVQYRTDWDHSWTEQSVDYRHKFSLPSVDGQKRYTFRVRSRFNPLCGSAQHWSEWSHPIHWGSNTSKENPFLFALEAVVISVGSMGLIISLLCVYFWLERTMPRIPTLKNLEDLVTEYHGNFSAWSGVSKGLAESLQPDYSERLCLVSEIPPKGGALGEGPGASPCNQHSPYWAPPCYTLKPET

[2] = target: T2, human IL-2Rβγc (on DERL-7 cells, U2OS IL2RB/IL2RG cells, CD25 knockout Kit225-STAT5 cells, primary CD8+ CTLs) (human, UniProt P14784 27-551; P31785 23-369)
T2 sequence (looked up) 1: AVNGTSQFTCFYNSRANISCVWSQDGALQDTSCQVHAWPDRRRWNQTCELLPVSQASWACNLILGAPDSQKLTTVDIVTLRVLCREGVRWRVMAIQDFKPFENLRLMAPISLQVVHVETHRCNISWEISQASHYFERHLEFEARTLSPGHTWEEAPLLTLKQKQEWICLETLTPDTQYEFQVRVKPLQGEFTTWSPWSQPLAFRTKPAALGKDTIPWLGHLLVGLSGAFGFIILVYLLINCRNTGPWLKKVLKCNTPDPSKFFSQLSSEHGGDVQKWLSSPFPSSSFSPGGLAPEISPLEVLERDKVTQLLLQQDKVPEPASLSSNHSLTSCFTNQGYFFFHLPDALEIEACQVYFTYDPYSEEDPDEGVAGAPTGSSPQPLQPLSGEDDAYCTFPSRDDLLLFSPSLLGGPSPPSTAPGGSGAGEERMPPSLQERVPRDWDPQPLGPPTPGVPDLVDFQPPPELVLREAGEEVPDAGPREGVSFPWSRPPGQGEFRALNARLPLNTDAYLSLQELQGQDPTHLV
T2 sequence (looked up) 2: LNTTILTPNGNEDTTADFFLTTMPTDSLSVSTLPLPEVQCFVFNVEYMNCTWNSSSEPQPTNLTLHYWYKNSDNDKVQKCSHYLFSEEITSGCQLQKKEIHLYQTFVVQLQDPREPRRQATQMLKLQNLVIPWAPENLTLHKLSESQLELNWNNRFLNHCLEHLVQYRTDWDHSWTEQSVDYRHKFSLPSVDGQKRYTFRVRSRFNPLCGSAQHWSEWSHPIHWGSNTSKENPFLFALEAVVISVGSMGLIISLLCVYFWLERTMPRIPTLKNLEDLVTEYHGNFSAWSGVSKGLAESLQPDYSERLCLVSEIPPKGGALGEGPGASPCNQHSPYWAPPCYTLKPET

[3] = target: T1, human IL-2Rαβγc (on Kit225-STAT5 …); remark: listed apart in the source
[4] = target: T2, human IL-2Rβγc (on DERL-7 cells, U2OS …); remark: listed apart in the source

B1: Ald_S4pAMF(PEG1)/R37A/F41K (CON1) (ligand)
chain: PTS[pAMF]([DBCO‑triazole-mPEG 30 kDa])STKKTQLQLEHLLLDLQMILNGINNYKNPKLTAMLTKKFYMPKKATELKHLQCLEEELKPLEEVLNLAQSKNFHLRPRDLISNINVIVLELKGSETTFMCEYADETATIVEFLNRWITFSQSIISTLT
modifications: not fully specified (bridges)
notes: also called Des-A1_IL-2_S4pAMF(PEG1)/R37A/F41K/C124S
- Kit225-STAT5 reporter, fold lower activity than aldesleukin [1]: 5110 fold
- CD25 knockout Kit225-STAT5 reporter, fold lower activity than aldesleukin [2]: 24 fold
- pSTAT5 Treg Fold-change from wt, donor #1 [3]: 3620 fold
- pSTAT5 Treg Fold-change from wt, donor #2 [3]: 2230 fold
- pSTAT5 Treg cells EC50, donor #1 [3]: 11.8 nM
- pSTAT5 Treg cells EC50, donor #2 [3]: 7.29 nM
- pSTAT5 CTLs EC50, donor #1 [4]: 71.9 nM
- pSTAT5 CTLs EC50, donor #2 [4]: 43 nM
- pSTAT5 CTLs Fold-change from wt, donor #1 [4]: 25 fold
- pSTAT5 CTLs Fold-change from wt, donor #2 [4]: 45 fold
